{"source": "paper PMC3046868", "about": "(Nature, 2010)", "proteins": {"B1": {"name": "HA-tagged wild-type APCDD1 (natural protein)", "chain": "not shown", "modifications": "glycosylated"}}, "molecular_target": "the molecule itself", "assay": "western blot", "data": [{"protein": "B1", "values": [{"measurement": "stoichiometry N", "value": 2}]}]}
